Laboratory results published in patent publication US12234269B2, “Osteogenic biomaterial” (Northeast Ohio Medical University, priority 2014, dated 2025).

Assays:
[1] = Osteogenic activity of the peptide fragment
From the text: A preferred osteoactivin active peptide fragment for use in the present invention is the amino acid sequence LAPFSRGDREKDPLLQDK (SEQ ID NO: 1). […] Accordingly, in some embodiments, shorter sections of SEQ ID NO: 1 consisting of 6 or 12 amino acids can be used.

[2] = system: critical size defects in bilateral distal femurs; assay: Sheep model for cancellous bone healing (critical size defect in distal femur, OA-soaked collagen sponge); format: in vivo, sheep (Ovis aries); conditions: for radiographic analysis: regeneration of bone at the defect site: vs control femurs
From the text: Thus, the sheep model provides a way to study the effect of OA on osteogenesis by inducing critical size defects into the long bones of the animals. […] Approval of the Northeast Ohio Medical University Institutional Animal Care and Use Committee (IACUC) was obtained prior to the start of this study. Six (6) male sheep (Ovis aries) between ages 2-3 years old were used, each with a critical size defect (25 mm in depth×11 mm in diameter) drilled into bilateral hind limb distal femurs. The surgical protocol utilized was based on previous work done to develop a model for cancellous bone healing (Malhotra et al, Front Surg. 2014 Sep. 8; 1:37). This method allowed for high quality standardization and sterility processes across each sheep. […] Martini et al., Comp Med. 2001 August; 51(4):292-9; Pearce et al., Eur Cell Mater. 2007 Mar. 2; 13:1-10. The procedures were performed by an orthopedic surgeon. Once under appropriate anesthesia, one femur defect (left hindlimb) was drilled with a cannulated acorn drill (Stryker) and packed with an PBS absorbable collagen sponge (Medline Industries) without OA protein and thus functioned as a control, while the other defect (right hindlimb) was filled with either a low dose (10 μg), or high dose (50 μg) recombinant OA-soaked collagen sponge (R&D Systems). Three sheep received the high dose OA while two received the low dose OA, and one was left as a control. The animals were allowed to recover and then terminated after a period of 10 weeks. The femurs were harvested for x-ray (General Electric) and μCT (Scanco) imaging. Blood and urine samples were collected for CBC, CMP and urinalysis (ANTECH Diagnostics). Tissue biopsies were taken from heart, lung, liver, spleen, kidney, thyroid gland, adrenal gland, and skeletal muscle for RNA and histological analyses during post-mortem dissection.

[3] = CBC, CMP, urinalysis and histological sampling of OA-treated sheep; format: in vivo, sheep (Ovis aries)
From the text: Approval of the Northeast Ohio Medical University Institutional Animal Care and Use Committee (IACUC) was obtained prior to the start of this study. Six (6) male sheep (Ovis aries) between ages 2-3 years old were used, each with a critical size defect (25 mm in depth×11 mm in diameter) drilled into bilateral hind limb distal femurs. The surgical protocol utilized was based on previous work done to develop a model for cancellous bone healing (Malhotra et al, Front Surg. 2014 Sep. 8; 1:37). This method allowed for high quality standardization and sterility processes across each sheep. […] Martini et al., Comp Med. 2001 August; 51(4):292-9; Pearce et al., Eur Cell Mater. 2007 Mar. 2; 13:1-10. The procedures were performed by an orthopedic surgeon. Once under appropriate anesthesia, one femur defect (left hindlimb) was drilled with a cannulated acorn drill (Stryker) and packed with an PBS absorbable collagen sponge (Medline Industries) without OA protein and thus functioned as a control, while the other defect (right hindlimb) was filled with either a low dose (10 μg), or high dose (50 μg) recombinant OA-soaked collagen sponge (R&D Systems). Three sheep received the high dose OA while two received the low dose OA, and one was left as a control. The animals were allowed to recover and then terminated after a period of 10 weeks. […]

CD44 = target: T1, CD44 (Mus musculus, UniProt P15379); assay: Binding of biotinylated rOA on MC3T3-E1 cells (immunofluorescence, immunoprecipitation, blot for CD44)
T1 construct: biotinylated rOA added onto MC3T3-E1 cells; endogenous in cells; host or cells: MC3T3-E1
T1 sequence (P15379 23-778): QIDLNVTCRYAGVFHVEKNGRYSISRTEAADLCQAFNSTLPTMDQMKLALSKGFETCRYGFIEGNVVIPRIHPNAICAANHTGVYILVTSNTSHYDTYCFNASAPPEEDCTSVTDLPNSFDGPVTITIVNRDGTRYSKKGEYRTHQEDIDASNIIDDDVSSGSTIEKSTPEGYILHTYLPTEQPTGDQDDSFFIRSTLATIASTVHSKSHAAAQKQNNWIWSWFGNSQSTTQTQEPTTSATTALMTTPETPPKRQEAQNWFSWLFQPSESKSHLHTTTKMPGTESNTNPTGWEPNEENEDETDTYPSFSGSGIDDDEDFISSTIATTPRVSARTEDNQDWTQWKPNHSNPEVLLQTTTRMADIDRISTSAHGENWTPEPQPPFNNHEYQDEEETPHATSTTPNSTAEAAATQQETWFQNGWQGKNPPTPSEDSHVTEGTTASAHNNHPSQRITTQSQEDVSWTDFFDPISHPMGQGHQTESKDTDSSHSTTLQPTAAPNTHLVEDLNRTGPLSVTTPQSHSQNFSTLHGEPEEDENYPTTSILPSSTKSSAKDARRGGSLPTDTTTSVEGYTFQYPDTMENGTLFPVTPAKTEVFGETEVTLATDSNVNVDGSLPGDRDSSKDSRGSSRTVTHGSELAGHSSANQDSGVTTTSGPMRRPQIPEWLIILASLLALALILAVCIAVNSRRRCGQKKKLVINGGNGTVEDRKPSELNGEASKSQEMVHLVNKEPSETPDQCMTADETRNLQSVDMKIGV
From the text: FIG. 3(A-C) provides images showing osteoactivin binds to CD44 in bone cells. (A) Silver staining and mass spectroscopy analysis of biotinylated rOA added onto MC3T3-E1 cells.

bone segmental defect = assay: Local delivery in a model of bone segmental defect; format: in vivo
From the text: It is synthesized and secreted by osteoblasts where it acts as signaling molecule to promote osteoblast differentiation and function. […] Research has also shown that OA is involved in mouse and human stem cells differentiation to bone cells, and that OA is responsible to transdifferentiate muscle cells to bone forming osteoblasts. The receptor for OA in bone and mesenchymal stem cells is CD44. OA induces differentiation of mesenchymal stem cells to bone cells through CD44.

bone defect = conditions: at 4 weeks; none of the control animals showed complete bone fill; cited from earlier work

Molecule: LAPFSRGDREKDPLLQDK (listed as Homo sapiens) [SEQ ID NO: 1]
- osteogenic activity [1]: demonstrated the osteogenic activity

B1: OA: 572 amino acid transmembrane glycoprotein encoded by the GPNMB gene; recombinant protein (R&D Systems) soaked into collagen sponge (protein, UniProt Q14956 23-572, looked up)
Transmembrane glycoprotein NMB: KRFHDVLGNERPSAYMREHNQLNGWSSDENDWNEKLYPVWKRGDMRWKNSWKGGRVQAVLTSDSPALVGSNITFAVNLIFPRCQKEDANGNIVYEKNCRNEAGLSADPYVYNWTAWSEDSDGENGTGQSHHNVFPDGKPFPHHPGWRRWNFIYVFHTLGQYFQKLGRCSVRVSVNTANVTLGPQLMEVTVYRRHGRAYVPIAQVKDVYVVTDQIPVFVTMFQKNDRNSSDETFLKDLPIMFDVLIHDPSHFLNYSTINYKWSFGDNTGLFVSTNHTVNHTYVLNGTFSLNLTVKAAAPGPCPPPPPPPRPSKPTPSLATTLKSYDSNTPGPAGDNPLELSRIPDENCQINRYGHFQATITIVEGILEVNIIQMTDVLMPVPWPESSLIDFVVTCQGSIPTEVCTIISDPTCEITQNTVCSPVDVDEMCLLTVRRTFNGSGTYCVNLTLGDDTSLALTSTLISVPDRDPASPLRMANSALISVGCLAIFVTVISLLVYKKHKEYNPIENSPGNVVRSKGLSVFLNRAKAVFFPGNQEKDPLLKNQEFKGVS
- radiographs and μCT of the femur defect site ([2]; 50 μg OA, after 10 weeks, compared to control (FIG. 2)): regenerated bone
- bone healing and regeneration (radiographic, μCT imaging and histological analysis) ([2]; OA-soaked absorbable collagen sponge vs defect only or collagen sponge alone, n=6): significantly accelerated bone healing and regeneration
- Micro-CT bone volume and density of the regenerated area ([2]; OA-treated defect sites vs control, 10 weeks): significant increase
- radiographic analysis: regeneration of bone at the defect site ([2]; high dose (50 μg) recombinant OA-soaked collagen sponge, 10 weeks): complete regeneration of bone at the defect site
- radiographic analysis: regeneration of bone at the defect site ([2]; low dose (10 μg) recombinant OA-soaked collagen sponge, 10 weeks): complete regeneration of bone at the defect site
- adverse systemic effects per laboratory studies or histological sampling ([3]; administered locally, sheep): no apparent adverse systemic effects
- CBC, CMP and urinalysis ([3]; control vs OA-treated sheep): no apparent abnormalities
- Immunoprecipitation of biotinylated rOA pulled out with streptavidin beads and blotted for CD44 (CD44; MC3T3-E1 cells): OA-CD44 interaction
- Immunofluorescence of CD44 and OA (CD44; bone cells): colocalization along the cell membrane
- bone regeneration (bone segmental defect): stimulates bone regeneration
- animals showing complete bone fill (bone defect): 70%
